# In the nanobody polyreactivity screen of Harvey et al. (2022):
# Assay: yeast display, Sf9 membrane polyspecificity reagent, FACS + sequencing; frameworks hold sequencing errors
# How it was run: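 Galactose induction of a Saccharomyces cerevisiae BJ5465 synthetic nanobody display library ran 36–48 hours. The cells were then stained for 1 hour at 4 °C with 10% biotinylated, detergent-solubilized Sf9 membrane reagent, pulled down on streptavidin microbeads and FACS-sorted into low and high (top ~1%) gates on expression and reagent-binding fluorescence. Labels for polyreactivity follow the gate of origin.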
row,Sequence,polyreactivity (PSR sort gate)
1,QVQLVESAGGLVQAGGRLRLSCAAYGFTFNKYAMGWSRQAPGKEREVVAYISSGDRTYYADSVKGRFTISRDNAKNTVYLQMNSLKPEDTAVYYCNAPYRIILENNNYWGHGTQVTVSS,high polyreactivity
2,QVQLVESAGGLVQAGGSHRLSCAASGITFYRYVMARYRQAPGKERELVAAITSGGNTYYADSVKGRFTISRDNAKNTFYLQMNRLKPDDTAVYYCAAYFSGPFDYWGQGTQVTVSS,high polyreactivity
3,QVQLVESAGGLVQAGGSHRLSFAATGRIFGPNTMGWYRQAPGKERDLVATITGGGGTNYADSVKGRFRISRVNAKYTDYLQMNSLKPVDTAVYYCAADYGGAYEYGYWGQGTQVTVSS,low polyreactivity
4,QVQLVESAGGLVQAGGSLPLSCAASGFTFISNAMGWYRQSPAKERELVAAISSSGGRTYYAVSVKGRFTISRDNAKNTVYLQMNSVKPEDTAVYYSNADRSLLYSRKIEYDYWGQGTKVTVSS,low polyreactivity
5,QVQLVESAGGLVQAGGSLRLICAASGSILQPYAMGWYRQAPGKERELVAYISYSGASTYYADSVKGRFTISRDNPKNTVYLQLNSLKPEDPAVYYCNARYWYHYLTYDYSGQGTQVTVSS,high polyreactivity
6,QVQLVESAGGLVQAGGSLRLICAATGLNLYVYVMGWYRQAPGKERELVAAITWSVSRTYYADSVKGRFTISRDNAKNTVYLQMNSLKPEDTAVYYCAARIPSDGYYYWGQGTQVTVSS,high polyreactivity
7,QVQLVESAGGLVQAGGSLRLRSAASGSTIWHNAMGWYRHAPGKERELVAGISGSGGSTYYADSVKGRFTISRDNAKNTVYLEMNSMKPDDTAVYYCATDGRSRVDGVRRGPYDYWGQGTHVTVSS,low polyreactivity
8,QVQLVESAGGLVQAGGSLRLSCAASARTFSAYSMGWYRQAPGKERELVAAISRRGRSTYYADSVKGRFTISRDNAKNTVYLQMTSLKPEDTAVYYCAADVYKQYGYYYWGLGTQVTVSS,high polyreactivity
9,QVQLVESAGGLVQAGGSLRLSCAASGFIFGGNAMGWYRQAPGKERELVAAITARSGSTYYADSVKGRFTISRDNAKNTVYLQMNSLKPEDTAVYYCATPVYRSTYEYDYWGQGTQVTVSS,low polyreactivity
10,QVQLVESAGGLVQAGGSLRLSCAASGFIFSRNAMGWYRQAPGKERELVAVISTSGGSTYYADSVKGRFTISRDNAKNTVYLQMNSLKPEDTAVYYCAARRTRGYEYWGKGTQVTVSS,high polyreactivity
11,QVQLVESAGGLVQAGGSLRLSCAASGFTFGDNAMGWYRQAPGKERELVAAITSSGSTNYADSVKGRFTISRDNAKNTVYLQMNSLKPEDTAVYYCNAEDSVDAPVYKDLGSEYDSWGQGTQVTVSS,low polyreactivity
12,QVQLVESAGGLVQAGGSLRLSCAASGGTFLQYAMGSYRQAPGKERELVATITLIGDSTYYADSVKGRFTISRDNAKNTVYLQMNSLIPEDTAVYYCADRPVTSYAYGSWGQGTQVTVSS,low polyreactivity
13,QVQLVESAGGLVQAGGSLRLSCAASGIIFDDNAKGWYRQAPGKERELVAAISGRGGSTYYADSVKGRFTISRDNAKNTVYLQMNSLKPEDTAVYYCAASTVRRGTAPYSGGGDYWGQGTQVTVSS,high polyreactivity
14,QVQLVESAGGLVQAGGSLRLSCAASGIIFEYYTRGWYRQAPGKERELVASITYDGDSTYYADSVKGRFTISRDNAKNTVYLQMNSLKPEDTAVYYCAADYYYVYSSFGHYYWGQGTQVTVSS,low polyreactivity
15,QVQLVESAGGLVQAGGSLRLSCAASGIIFPAYAMGWYRQAPGKERELVAGISGRGGSTYYADSVKGRFTISRDNAKNTVYLQMNSLKPEDTAVYYCAAYAGGPYKFDYWGQGTQVTVSS,high polyreactivity
16,QVQLVESAGGLVQAGGSLRLSCAASGITFTYYAMGWYRQAPGKERELVATISYGGGITYYADSVKGRFTISRDNAKNTVYLQMNSLKPEDTAVYYCNADGATVWSLEYWGQGTQVTVSS,low polyreactivity
17,QVQLVESAGGLVQAGGSLRLSCAASGLTFTTYAMGWYRQAPGKERELVAAISRRGSRTYYADSVKGRFTISRDNAKNTVYLQMNSLKPEDTAVYYCNALTGSFKTYSFDYWGQGTQVTVSS,high polyreactivity
18,QVQLVESAGGLVQAGGSLRLSCAASGNTFHSNALGWYRQAPGKERELVAAITPSDGDTYYADSVKGRFTISRDNAKNTVYLQMNSLKPEDTAVYYCAAEDDPGEYEYWGQGTQVTESS,low polyreactivity
19,QVQLVESAGGLVQAGGSLRLSCAASGRIFGINSLGWYRQAPGKERELDAAISSGGSTYYADSVKGRFTISRDNAKYTVYILMNSEKPVDSAVYYCASDYDSSVCHDRGFWRDYWGQGNQVTVSS,low polyreactivity
20,QVQLVESAGGLVQAGGSLRLSCAASGRIFGYNAMGWYRQAPGKERELVAVITYSGGSTYYADSVKGRFTISRDNAKNTVYLQMNSLKPEDTAVYYCAKATTWGYFRVWSTRYYYWGQGTQVTVSS,low polyreactivity
21,QVQLVESAGGLVQAGGSLRLSCAASGRIFPFYAMGWYRQAPGKERELVAAISWNGGSTFYADSVKGRFTISRDNAKNTVYLQMNSLKPEDTAVYYCNADCRPAYTYDYWGQGTQVTVSS,low polyreactivity
22,QVQLVESAGGLVQAGGSLRLSCAASGRIFQFYAMGWYRQAPGKERELVATITRGGSTYYADSVKGRFTISRDNAKNTVYLQMNSLKPEDTAVYYCAAGFAGKYYWGQGTQVTVSS,high polyreactivity

row,Sequence,polyreactivity (PSR sort gate)
1,QVQLVESAGGLVQAGGSLRLSCAASGRIFSPYAMGWYRQAPGKERELVAAIDWDGGGTYYADSVKGRFTISRDNAKNTVYLQMNSLKPEDTAVYYCAAETDLANGTSPSDYWGQGTQVTVSS,low polyreactivity
2,QVQLVESAGGLVQAGGSLRLSCAASGRIYGQNAMGWYRQAPGKERELVAAITGSGGRTYYADSVKGRFTISRDNAKNTVYLQMNSLKPEESAVYYSAVRVTSYYRTMDYWGQGTQVTVSS,low polyreactivity
3,QVQLVESAGGLVQAGGSLRLSCAASGRTGVNAMGWYRQAPGKERGLVAAINTSVGRTYYADSVKGRFTISRDNAKNTVYLQMNSLKPEDTAVYYCNTDRLGAARYDYWGQGTQVTVSS,low polyreactivity
4,QVQLVESAGGLVQAGGSLRLSCAASGSIFGSNAMGWYRQAPGKERELVASITSSGGSTHYADSVKGRFTISRDNAKNTVYLQMNSLKPEDTAVSYCATRAYGYYRWLYDYWGQGTQVTGSS,low polyreactivity
5,QVQLVESAGGLVQAGGSLRLSCAASGSIINRYAMGWYRQAPGKERELVAAITQSGGRTYYADSVKGRFTISRDNAKNTVYLQMNRLKPDDTAGYYCNAFRWYLYDYWGQGTLVTVSS,high polyreactivity
6,QVQLVESAGGLVQAGGSLRLSCAASGSILVLNAMGWSRQAPGKERELVAAITSRGTRTYYADSVKGRFTISRDNAKNTVYLQLNSLNPEDTAVYYCAAKAGYRYGSLAYYKYDYWGQGTQVTLSS,high polyreactivity
7,QVQLVESAGGLVQAGGSLRLSCAASGSTFANYAMGWYRQAPGKERELVAGISWRGGRTYYADSVKGRFTISRDNAKNTVYLQMNSLKPEDTAVYYSAVVHQTFTGDYWGQGTQVTVSS,high polyreactivity
8,QVQLVESAGGLVQAGGSLRLSCAASGSTFFTYTMGWYRQAPGKERELVAAISSGGSTYYADSVKGRFTISRDNAKNTVYLQMNSLKPEDTAVYYLLRGQGTQVTVSS,low polyreactivity
9,QVQLVESAGGLVQAGGSLRLSCAASGSTFVTYAMGWYRQAPGKERELVAAISSTGTGRTYYADSVKGRFTISRDNAKNTVYLQMNSLKPEDTAVYSCAADATSPLTWFDYWGQGTQVTVSS,low polyreactivity
10,QVQLVESAGGLVQAGGSLRLSCAASGSTFWIYTMGWYRQAPGKERELVAAITWSGGRTYYADSVKGRFTISRDNAKNTVYLQMNSLKPEDTAVYYCNADVYSYRPSTIQRYVLFDYWGQGTQVTVSS,low polyreactivity
11,QVQLVESAGGLVQAGGSLRLSCAASGSTLRAYAMGWYRQAPGKERELVAAISGSGDSTYYADSVKGRFTISRDNAKNTVYLQMNSLKPEDTAVYYCNKGLFSTGNIPYYLIVYLEYNYWGQGTQVTVSS,low polyreactivity
12,QVQLVESAGGLVQAGGSLRLSCAASGYIFQYYAMGWYRQAPGKERELVAAITSGGSTYYADSVKGRFTISRDNAKNTVYLQMNSLKPEDTAVYYCAAHLLHYRGDYWGQGTQVTVSS,high polyreactivity
13,QVQLVESAGGLVQAGGSLRLSCAASGYIFSYNAMGGYRQAPGKERELVAAITASGGGTYYADSVKGRFTISRDNAKNTVYLHMNSLKQEDTAVYYCAADLSWSRVVFGDYDYWGQGTQVTVSS,low polyreactivity
14,QVQLVESAGGLVQAGGSLRLSCAASGYTLYLNAMGWYRQAPGKERELVARISGGGSTNYADSVKGRFTISRDNAKNTVYLQMNSLKPEDTAVYYCAASIFAYGYRSFQLDYWGQGTQVTVSS,low polyreactivity
15,QVQLVESAGGLVQAGGSLRLSCAAYGRIFAYNAMGWYRQSPGKERELVAAITWSGDSTYYADSVKGRFTISRDNAKNTVYLQMNSLKPEDTAVYYCATDPLFITSTRWKYDYWGQGTQVTVSS,low polyreactivity
16,QVQLVESAGGLVQAGGSLRLSCADSGSTFSPYAMGWYIDAPGKERELVAAIRSGRTSYADSVKGRFTISRDNAKNTVYLQMNSLKPEDTAVYYCAKASRVGYYWGQGTQVTESS,high polyreactivity
17,QVQLVESAGGLVQAGGSLRLSCASSGSTLPYNAMGWYRQAPGKESELVAAISKSGGRTYYADSVKGRFTISRDNAKNSVYLQMNSLKPEDTAVYYCNAGPYLGGGGSSRYLWGQGTQVTVSS,high polyreactivity
18,QVQLVESAGGLVQAGGSLRLSCDASGRIIRGNAMGWYRQAPGKEREMVAAINRSGGSTYYADSVKGRFTISRDNAKNTVYLQMKSLKQEDTAVYYCIAYPASRKTGWSSGYYYWGQGTQVTVSS,high polyreactivity
19,QVQLVESAGGLVQAGGSLRLSCDASGSIFRYYDMGWYRQAPGKERELVAAITYYGGGTYYADSVKGRFTISRDNAKNTVYLQMNSLKAEDTAVYYCAVRRVGSIYMDRYRYVVADYVYWGQGTQVTVSS,low polyreactivity
20,QVQLVESAGGLVQAGGSLRLSCDASGSTIDEYDMGWYRQAPGKERELVAAISDRGSRTRYADSVKGRFTISRDNAKNTVYLQLNSLKPEDTAVDYCNADIYVNYWDFDYWGQGTQVTVSS,high polyreactivity
21,QVQLVESAGGLVQAGGSLRLSSAASGYNFCSYAMGWYRQAPGKEREFVATISASGGRTYYADSVKGRFTISRDNAKNTVYLQMNSMKPEDTAVYYCNADPGNHAYWYYVEFYYYTYDYWGQGTQVTVSS,low polyreactivity
